Measurements: patent publication US20040191883A1 (ULTIZYME INTERNATIONAL, published 2004)

Target: the molecule itself
Experiment: SDS-PAGE without mercaptoethanol, subunit-subunit disulfide-linked homodimer

B1: modified water-soluble PQQGDH Ser415Cys (Acinetobacter calcoaceticus) (enzyme)
chain: DVPLTPSQFAKAKSENFDKKVILSNLNKPHALLWGPDNQIWLTERATGKILRVNPESGSVKTVFQVPEIVNDADGQNGLLGFAFHPDFKNNPYIYISGTFKNPKSTDKELPNQTIIRRYTYNKSTDTLEKPVDLLAGLPSSKDHQSGRLVIGPDQKIYYTIGDQGRNQLAYLFLPNQAQHTPTQQELNGKDYHTYMGKVLRLNLDGSIPKDNPSFNGVVSHIYTLGHRNPQGLAFTPNGKLLQSEQGPNSDDEINLIVKGGNYGWPNVAGYKDDSGYAYANYSAAANKSIKDLAQNGVKVAAGVPVTKESEWTGKNFVPPLKTLYTVQDTYNYNDPTCGEMTYICWPTVAPSSAYVYKGGKKAITGWENTLLVPSLKRGVIFRIKLDPTYCTTYDDAVPMFKSNNRYRDVIASPDGNVLYVLTDTAGNVQKDDGSVTNTLENPGSLIKFTYKAK
modifications: Cys415 of each subunit joined in an inter-subunit disulfide bond
notes: also called modified enzyme Ser415Cys; Ser4l5Cys
  binding result: binds
